Measurements as given in patent US8333970B2, “Methods of monitoring the efficacy of anti-CD40 antibodies in treating a subject having an inflammatory or autoimmune disease” (Novartis AG, priority 2005, dated 2012).
“Also recorded” adds a separate entry of the source.

B1: CD40L: CD40 ligand used as stimulus, presented on transfected, formaldehyde fixed CHO cells (protein)
chain: MIETYNQTSPRSAATGLPISMKIFMYLLTVFLITQMIGSALFAVYLHRRLDKIEDERNLHEDFVFMKTIQRCNTGERSLSLLNCEEIKSQFEGFVKDIMLNKEETKKENSFEMQKGDQNPQIAAHVISEASSKTTSVLQWAEKGYYTMSNNLVTLENGKQLTVKRQGLYYIYAQVTFCSNREASSQAPFIASLCLKSPGRFERILLRAANTHSSAKPCGQQSIHLGGVFELQPGASVFVNVTDPSQVSHGTGFTSFGLLKL
modifications: expressed on fixed CHO cells

Tests used:
[1] = tested on: CD40-expressing target cells; test: Antibody dependent cellular cytotoxicity (ADCC); assay type: cell-based; details: native antibodies
Text: (§1) 2, 2000, and PCT International Application No. PCT/US01/30857, also titled “Human Anti-CD40 Antibodies,” filed Oct. 2, 2001, both of which are herein incorporated by reference in their entirety.
Clones from 7 other hybridomas were identified as having antagonistic activity. Based on their relative antagonistic potency and ADCC activities, two hybridoma clones were selected for further evaluation (Table 1 below). They are named 131.2F8.5.9 (5.9) and 153.8E2.D10.D6.12.12 (12.12).

soluble CD40 = soluble CD40 (Homo sapiens, UniProt P25942); test: ELISA-type assay, binding to soluble CD40; details: ELISA-type assays
soluble CD40, sequence (P25942 21-193 limits assumed): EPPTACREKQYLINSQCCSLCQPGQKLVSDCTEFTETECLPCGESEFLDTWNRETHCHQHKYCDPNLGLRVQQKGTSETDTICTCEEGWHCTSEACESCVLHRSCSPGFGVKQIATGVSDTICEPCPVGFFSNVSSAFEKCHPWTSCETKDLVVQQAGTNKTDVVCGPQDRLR
Text: as §1

cell-surface CD40 = cell-surface CD40 (Homo sapiens, UniProt P25942); test: Flow cytometric (FACS) assay of CD40 binding and CD40-ligand blocking
cell-surface CD40, sequence (P25942 21-277): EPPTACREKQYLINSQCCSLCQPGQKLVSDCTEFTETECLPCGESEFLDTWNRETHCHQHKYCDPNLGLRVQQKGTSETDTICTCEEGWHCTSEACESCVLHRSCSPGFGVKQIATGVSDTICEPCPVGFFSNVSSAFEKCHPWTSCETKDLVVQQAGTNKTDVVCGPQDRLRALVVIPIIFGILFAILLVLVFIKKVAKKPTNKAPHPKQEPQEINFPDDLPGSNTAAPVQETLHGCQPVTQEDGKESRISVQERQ
Text: as §1

[2] = tested on: B cells from normal human subjects; test: In vitro proliferation of normal human B cells / lymphocytes; assay type: cell-based
Text: as §1
(§2) 4, 2003, Nov. 26, 2003, and Apr. 27, 2004, and assigned U.S. Patent Application Nos. 60/517,337 , 60/525,579, and 60/565,710, respectively, and International Patent Application No. PCT/US2004/037152, also entitled “Antagonist Anti-CD40 Monoclonal Antibodies and Methods for Their Use,” filed Nov. 4, 2004; the contents of each of which are herein incorporated by reference in their entirety.

[3] = tested on: cancer cells from NHL and CLL patients; test: In vitro CD40 ligand-mediated proliferation of patient cancer cells; assay type: cell-based, human
Text: as §2

[4] = tested on: primary cancer cells from NHL patients; test: ADCC on primary cancer cells; assay type: cell-based, human; details: in vitro
Text: as §2

monocytes = test: CD40L-induced cytokine secretion, Meso Scale Discovery multi-array; assay type: cell-based, human; details: monocytes, Donor 1, 24 hours
Procedure: (§3) Cells (1×10^5 cells per well) were cultured in a 96-well plate in the presence or absence of CD40L ([…], formaldehyde fixed CHO cells, 2×10^5 per well). […] Production of hIL-6, hIL-8, hIL-10, hTNF-α; hGM-CSF, hIL-1b, hIL-12p70, MCP-1, and MIP-1β beta was measured by Meso Scale Discovery® multi-array system (Meso Scale Discovery, Gaithersburg, Md.).

normal B cells = test: as above; assay type: cell-based, human; details: normal B cells
Procedure: as §3

| Molecule | ADCC activity, killing of CD40-expressing target cells [1] | binding to soluble CD40 (soluble CD40) | specific binding to human CD40 (cell-surface CD40; FACS analysis) | displacement of CD40-ligand pre-bound to cell surface CD40 (cell-surface CD40; flow cytometric assays) | prevention of CD40-ligand binding to cell-surface CD40 (cell-surface CD40; flow cytometric assays) | effect on CD40 ligand-mediated proliferation of normal B cells ([2]; in vitro) | induction of proliferation of human lymphocytes (agonist activity) ([2]; lymphocytes from normal subjects, antibody alone) | CD40 ligand-mediated proliferation of cancer cells [3] | killing of primary cancer cells by ADCC [4] | CD40L-induced hGM-CSF secretion, folds of induction over background (monocytes) | CD40L-induced hIL1-b secretion, folds of induction over background (monocytes) | CD40L-induced hIL-12p70 secretion, folds of induction over background (monocytes) | CD40L-induced hGM-CSF secretion, folds of induction over background (normal B cells; Donor 1, 24 hours) | CD40L-induced hIL-1b secretion, folds of induction over background (normal B cells; Donor 1, 24 hours) | CD40L-induced hIL-12p70 secretion, folds of induction over background (normal B cells; Donor 1, 24 hours) | CD40L-induced hIL-1b secretion, folds of induction over background (normal B cells; Donor 2, 24 hours) | CD40L-induced hGM-CSF secretion, folds of induction over background (normal B cells; Donor 3, 24 hours) | CD40L-induced hIL-1b secretion, folds of induction over background (normal B cells; Donor 3, 24 hours) | CD40L-induced hIL-12p70 secretion, folds of induction over background (normal B cells; Donor 3, 24 hours) |
| --- | --- | --- | --- | --- | --- | --- | --- | --- | --- | --- | --- | --- | --- | --- | --- | --- | --- | --- | --- |
| CHIR-5.9: fully human anti-CD40 monoclonal antibody of the IgG1 isotype, hybridoma 131.2F8.5.9, ATCC PTA-5542, SEQ ID NO:6 and 7 | have ADCC activity; also recorded: able to kill CD40-expressing target cells | bind soluble CD40 | bind specifically to human CD40 | displace the pre-bound CD40-ligand; also recorded: can compete off CD40-ligand pre-bound to cell surface CD40 | prevent the binding of CD40-ligand to cell-surface CD40; also recorded: can prevent CD40-ligand binding | act as antagonist anti-CD40 antibodies; also recorded: inhibit in vitro CD40 ligand-mediated proliferation of normal B cells | do not induce strong proliferation | inhibiting in vitro CD40 ligand-mediated proliferation of cancer cells from NHL and CLL patients | kill primary cancer cells from NHL patients by ADCC |  |  |  |  |  |  |  |  |  |  |
| B1 |  |  |  |  |  |  |  |  |  | no induction | no induction | no induction | no induction | no induction | no induction | no induction | no induction | no induction | no induction |
